Measurements as given in patent publication US6465220B1, “Glycosylation using GalNac-T4 transferase” (GlycoZym ApS, priority 1998, dated 2002).

Legend:
GalNAc-T4 = target: T1, GalNAc-T4 (Homo sapiens, UniProt Q8N4A0); test: GalNAc-transferase assay with purified recombinant GalNAc-T4; format: biochemical
T1 construct: made in house; host or cells: High Five insect cells (baculovirus, pAcGP67 vector)
Procedure: (§1) In the examples, GalNAc-transferase assays were performed in 50 μl total reaction mixtures containing 25 mM cacodylate (pH 7.5), 10 mM MnCl2, 0.1-0.25% Triton X-100, 150-200 μM UDP-[^14C]-GalNAc (4,000 cpm/nmole) (Amersham) and 0.06-1 mM acceptor peptides. Peptides were either synthesized or obtained from Carlbiotech (Copenhagen), or Neosystems (Strasbourg), and quality was ascertained by amino acid analysis and mass spectrometry. Peptides Muc-1a, Muc-1b, and TAP24, were derived from the tandem repeat of human MUC1, Gendler et al., J. Biol. Chem. 265:15286 (1990), and Muc2, Muc5AC, and Muc7 from the tandem repeats of MUC2, MUC5AC, and MUC7, respectively. Gum et al., J. Biol. Chem. 264:6480 (1989); Porchet et al., Biochem. Soc. Trans. 23:800 (1995); Bobek et al., J. Biol. Chem. 268:20563 (1993). GalNAc4TAP24 was produced by in vitro glycosylation using GalNAc-T2 as described in Wandall et al., J. Biol. Chem. 272:23503 (1997). Products were quantified by scintillation counting after chromatography on Dowex-1, octadecyl silica cartridges (Bakerbond), or HPLC (PC3.2/3 or mRPC C2/C18 SC2.1/10 Pharmacia, Smart System). Products produced by in vitro glycosylation were in most cases also confirmed by mass spectrometry.
In this example, GalNAc-T4 was expressed in Sf9 insect cells. Expression constructs designed to contain amino acid residues 32-578 of the coding sequence of the putative GalNAc-T4 gene shown in SEQ ID NO:1 prepared by genomic PCR of two clones containing GalNAc-T4 (described in Bennett et al. (1998), supra) were cloned into a BamHI site of the expression vector pAcGP67 (Pharmingen), and the expression construct was sequenced. The constructs pAcGP67-GalNAc-T4506Vsol and pAcGP67-GalNAc-T4506 I sol, were designed to yield a putative soluble form of the GalNAc-T4 protein with an N-terminal end positioned immediately C-terminal to a potential transmembrane domain and including the entire sequence expected to contain the catalytic domain. […] Res. Comm. 211:347 (1995).
The activities presented in Table I were obtained with purified GalNAc-T4 and -T2, and are expressed as mU/mg (the concentration of enzyme protein estimated by SDS-PAGE using BSA as standard).

GalNAc-T2 = target: T2, GalNAc-T2 (Homo sapiens, UniProt Q10471); test: GalNAc-transferase assay with purified recombinant GalNAc-T2; format: biochemical
T2 construct: Control constructs pAcGP67-GalNAc-T1-sol, pAcGP67-GalNAc-T2-sol, pAcGP67-GalNAc-T3-sol, and pAcGP67-O^2-sol were prepared as previously described; made in house; host or cells: insect cells (baculovirus, pAcGP67)
Procedure: as §1, with “The following examples are provided to illustrate certain preferred embodiments of the invention, and should be considered as illustration and not as limitation. In” for “In”
In this example, GalNAc-T4 was expressed in Sf9 insect cells. Expression constructs designed to contain amino acid residues 32-578 of the coding sequence of the putative GalNAc-T4 gene shown in SEQ ID NO:1 prepared by genomic PCR of two clones containing GalNAc-T4 (described in Bennett et al. (1998), supra) were cloned into a BamHI site of the expression vector pAcGP67 (Pharmingen), and the expression construct was sequenced. The constructs pAcGP67-GalNAc-T4506Vsol and pAcGP67-GalNAc-T4506 I sol, were designed to yield a putative soluble form of the GalNAc-T4 protein with an N-terminal end positioned immediately C-terminal to a potential transmembrane domain and including the entire sequence expected to contain the catalytic domain. Control constructs pAcGP67-GalNAc-T1-sol, pAcGP67-GalNAc-T2-sol, pAcGP67-GalNAc-T3-sol, and pAcGP67-O^2-sol were prepared as previously described in White et al., J. Biol. Chem 270:24156 (1995); Bennett et al., J. Biol. Chem. 271:17006 (1996); and Bennett et al., Biochem. Biophys. Res. Comm. 211:347 (1995).
Activities measured with the mucin derived substrates, Muc7, EA2, and Muc2 (see Table I for structures and SEQ ID NOs:19, 25 and 18, respectively), were only 2-7 fold over background values. Very low activities with a few other substrates were also observed, but for many of the “mucin-like” substrates a relative high background with Sf9 cells infected with irrelevant constructs made assessment difficult. GalNAc-T4 was expressed in High Five cells and purified to near homogeneity, however, very low endogenous activity was detected with some substrates in the same fractions when medium from cells infected with irrelevant expression constructs were used in the same purification strategy. The activities presented in Table I were obtained with purified GalNAc-T4 and -T2, and are expressed as mU/mg (the concentration of enzyme protein estimated by SDS-PAGE using BSA as standard). The highest activities with GalNAc-T4 were found from assays of Sf9 medium with the mucin peptides Muc7, EA2, and Muc2, however, the efficiencies with these substrates were considerably lower than GalNAc-T2.

T1 sequence (Q8N4A0 32-578 limits assumed): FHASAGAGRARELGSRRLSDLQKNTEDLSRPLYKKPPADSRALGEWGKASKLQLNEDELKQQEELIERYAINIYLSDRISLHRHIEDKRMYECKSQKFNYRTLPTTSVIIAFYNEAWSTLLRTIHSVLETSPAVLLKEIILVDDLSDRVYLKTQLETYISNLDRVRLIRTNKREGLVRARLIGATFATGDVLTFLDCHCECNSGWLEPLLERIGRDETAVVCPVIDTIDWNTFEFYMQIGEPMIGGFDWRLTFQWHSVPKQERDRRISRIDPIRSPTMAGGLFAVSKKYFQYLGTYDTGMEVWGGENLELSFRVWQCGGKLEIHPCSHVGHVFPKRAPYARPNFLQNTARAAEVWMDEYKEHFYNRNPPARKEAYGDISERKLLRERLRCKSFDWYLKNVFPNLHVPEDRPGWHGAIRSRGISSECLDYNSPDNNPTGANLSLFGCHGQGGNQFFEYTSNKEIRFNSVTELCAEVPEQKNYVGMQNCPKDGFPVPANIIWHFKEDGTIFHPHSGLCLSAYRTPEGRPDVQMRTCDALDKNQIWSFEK
T2 sequence (Q10471 52-571 limits assumed): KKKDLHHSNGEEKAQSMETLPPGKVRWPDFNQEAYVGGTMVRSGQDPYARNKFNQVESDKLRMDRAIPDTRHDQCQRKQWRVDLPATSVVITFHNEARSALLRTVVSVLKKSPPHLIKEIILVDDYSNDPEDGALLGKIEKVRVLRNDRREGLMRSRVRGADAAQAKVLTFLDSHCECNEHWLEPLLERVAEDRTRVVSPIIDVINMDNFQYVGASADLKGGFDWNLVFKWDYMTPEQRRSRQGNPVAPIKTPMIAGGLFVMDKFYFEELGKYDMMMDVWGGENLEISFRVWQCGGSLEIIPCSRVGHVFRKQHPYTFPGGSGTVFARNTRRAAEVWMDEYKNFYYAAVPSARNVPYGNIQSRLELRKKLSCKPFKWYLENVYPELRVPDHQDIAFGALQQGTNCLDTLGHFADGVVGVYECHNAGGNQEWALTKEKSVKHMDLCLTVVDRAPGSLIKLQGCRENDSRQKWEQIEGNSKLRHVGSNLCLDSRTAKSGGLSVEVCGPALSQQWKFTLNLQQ

DSTTPAPTTK [EA2, mucin derived substrate]
GalNAc-T4 activity with acceptor peptide (GalNAc-T4; 0.06 mM peptide in 50-μl assay): 15 ± 0.1 milliunits/mg
GalNAc-T4 activity with acceptor peptide (GalNAc-T4; 0.25 mM peptide in 50-μl assay): 42 ± 4 milliunits/mg
Vmax GalNAc-T4 (GalNAc-T4; acceptor substrate): 0.44 nmol/min/µg
Km (GalNAc-T4; acceptor substrate, read-out: Km GalNAc-T4): 2190 µM
GalNAc-T2 activity with acceptor peptide (GalNAc-T2; 0.06 mM peptide in 50-μl assay): 152 ± 3 milliunits/mg
GalNAc-T2 activity with acceptor peptide (GalNAc-T2; 0.25 mM peptide in 50-μl assay): 376 ± 5 milliunits/mg
Km (GalNAc-T2; acceptor substrate): 850 µM
Vmax GalNAc-T2 (GalNAc-T2; acceptor substrate): 1.80 nmol/min/µg
